Measured values published in patent US20110212528A1.

Target: GAL4/CfEcR-DEF (Choristoneura fumiferana)
Experiment: cell-based or functional assay

Substance | fold induction (maximum, reporter gene transactivation, NIH3T3 cells, GS-E) [fold]
VP16/HsRXRβ-EF substitution mutant A528S (receptor) | 21
VP16/HsRXRβ-EF substitution mutant A495S (receptor) | 30
